Laboratory results published in patent US9056079B2, “Molecules interfering with binding of calbindin to inositol monophosphatase for the treatment of mood disorders” (Ben-Gurion University of the Negev Research and Development …, priority 2008, dated 2015).
Where two headings read alike, the source gives them in different places. Where no end group is shown, it is not given here.

Assays:
[1] = biological target: T1, calbindin-activated IMPase (Homo sapiens, UniProt P05937); experiment: IMPase activity in mouse brain crude homogenate in the presence of recombinant human calbindin and short peptides (malachite green phosphate assay); assay type: biochemical; parameters: from tissue; host or cells: mouse brain crude homogenate; key to IMPase Activity, nean ± SD: fraction of mean control value in each run; conditions: for IMPase Activity, nean ± SD / effect of peptide on the enhancement of IMPase activity by calbindin (in words): 10 μM peptide; for IMPase Activity, nean ± SD: values normalized to the mean of the control values in each run; for effect of peptide on the enhancement of IMPase activity by calbindin (in words): 20 μM calbindin
T1 sequence (P05937 1-261): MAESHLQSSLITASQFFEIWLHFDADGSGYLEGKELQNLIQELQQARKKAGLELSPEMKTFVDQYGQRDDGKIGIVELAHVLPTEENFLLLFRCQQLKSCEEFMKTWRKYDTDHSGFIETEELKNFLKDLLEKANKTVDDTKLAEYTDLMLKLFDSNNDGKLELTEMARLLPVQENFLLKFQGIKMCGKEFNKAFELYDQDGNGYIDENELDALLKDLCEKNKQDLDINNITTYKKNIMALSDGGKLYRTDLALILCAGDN
Protocol: (§1) IMPase activity in mouse brain homogenates was measured as previously described [Cryns et al., 2008]. Inorganic phosphate liberated from inositol-1-phosphate was quantified spectrophotometrically in an ELISA reader (iEMS, Labsystems) using the malachite green color reagent. To study the effect of the synthetic peptides on the enhancing interaction between calbindin and IMPase the reaction was carried out in the presence of 20 μM human recombinant calbindin [Thulin and Linse, 1999] (produced by PPS, Rehovot, Israel, using the plasmid kindly donated by S. Linse, Lund, Sweden) and in the presence or absence of 10 μM of each of the peptides. In order to distinguish IMPase activity from non-specific phosphatases the reaction was carried out in the presence and absence of 30 mM LiCl. […] The enzyme activity was calculated as the difference between the activity values in absence and in the presence of Li. Values were normalized to the mean of the control values in each run.

[2] = system: IMPase; conditions: 30 mM LiCl; cited from earlier work
[3] = biological target: T2, IMPase (Bos taurus, UniProt P20456); conditions: read-out: Ki, uncompetitive inhibition of IMPase; cited from earlier work
T2 sequence (P20456 1-277): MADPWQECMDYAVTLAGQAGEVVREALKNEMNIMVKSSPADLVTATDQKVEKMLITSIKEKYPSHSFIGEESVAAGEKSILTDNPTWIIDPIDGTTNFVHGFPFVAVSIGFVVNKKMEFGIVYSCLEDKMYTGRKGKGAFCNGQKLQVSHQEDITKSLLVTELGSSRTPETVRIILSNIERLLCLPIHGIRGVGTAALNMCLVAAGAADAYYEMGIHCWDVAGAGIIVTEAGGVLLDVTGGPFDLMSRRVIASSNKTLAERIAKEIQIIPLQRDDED

[4] = biological target: T1, calbindin-activated IMPase; parameters: from tissue; host or cells: postmortem human brain crude homogenate; conditions: postmortem human prefrontal cortex crude homogenate; recombinant human calbindin; Shamir et al., 2005; cited from earlier work
[5] = biological target: T1, calbindin-activated IMPase; experiment: IMPase activity in postmortem human brain crude homogenate in the presence of human recombinant calbindin; assay type: biochemical; parameters: from tissue; host or cells: postmortem human brain crude homogenate
Protocol: The designed peptides were validated by in vitro IMPase activity measurements. As shown in the Examples (Table 1), IMPase activity of mouse brain crude homogenate is increased by 1.9 ±1.0 (S.D.) fold in the presence of 20 μM human recombinant calbindin. […] Peptides 2 through 4 (SEQ ID NO:2 through SEQ ID NO:4), which included the Lys-Glu-Lys motif or part of it, inhibited the activating interaction similarly to Peptide 1.
as §1

[6] = system: IMPase; experiment: Basal IMPase activity in the presence of peptide but in the absence of calbindin (control for nonspecific effect); assay type: biochemical
Protocol: To control for a possible nonspecific effect of short peptides on IMPase activity the enzyme's activity in the presence of Peptide 1 (but in the absence of calbindin) was assessed. […] Furthermore, possibilities were checked that there was a protease activity in the homogenate, and that eventual prior interaction between IMPase and calbindin prevents interference by the active peptides. To this end calbindin was preincubated with the homogenate for 10 min prior to the addition of the substrate. No difference in IMPase activity was found in these two experiments.
as §1, with “peptides.” for “peptides. In order to distinguish IMPase activity from non-specific phosphatases the reaction was carried out in the presence and absence of 30 mM LiCl.”, “Values were normalized to the mean of the control values in each run.” left out

[7] = 20 μM human recombinant calbindin

| Molecule | IMPase Activity, nean ± SD [1, 7] | also measured |
| --- | --- | --- |
| [Cl-].[Li+] [LiCl] | – | inhibition of IMPase activity (in words) [2]: totally inhibits IMPase activity |
| IAEAYP [Peptide 6] | 2.5 ± 1.1 | – |
| [Li] [lithium] | – | Ki [3]: 800 µM |
| calbindin: member of the vitamin-D-dependent calcium-binding proteins; binds IMPase residues 55-66 and enhances its activity | 1.9 ± 1.0 | increase of IMPase activity by calbindin [4]: 3.5 fold; increase of human brain IMPase activity by calbindin [5]: three-fold; increase of IMPase activity by calbindin [1, 7]: 1.9 ±1.0 fold |
| KHIKPS [Peptide 7] | 1.4 ± 0.2 | – |
| IKEKYP [Peptide 1, hexapeptide identical to residues 58-63 of IMPase] | 1.2 ± 0.9 | effect of peptide on calbindin-activated IMPase (in words) [5]: abolished this effect; effect of peptide on the enhancement of IMPase activity by calbindin (in words) [1]: strongly reduced; effect on basal activity of IMPase [6]: did not affect the basal activity of IMPase |

The next lines start with results.

| IMPase Activity, nean ± SD [1, 7] | Molecule | also measured |
| --- | --- | --- |
| 2.3 ± 1.7 | IAAAYP [Peptide 8] | – |
| 1.4 ± 0.6 | SYEHKP [Peptide 5] | – |
| 1.0 ± 0.5 | IKEAYP [Peptide 3] | – |
| 0.9 ± 0.5 | IKAKYP [Peptide 2] | – |
| 2.6 ± 1.2 | Lys-Glu-Lys (KEK; Peptide derived from the segment including residues 55-66 of IMPase) [Peptide 10] | effect of peptide on the enhancement of IMPase activity by calbindin (in words) [1]: did not interfere with the enhancement of IMPase activity by calbindin |
| 1.9 ± 0.6 | Ile-Lys-Glu-Lys-Tyr (IKEKY; Peptide derived from the segment including residues 55-66 of IMPase) [Peptide 9] | effect of peptide on the enhancement of IMPase activity by calbindin (in words) [1]: did not interfere with the enhancement of IMPase activity by calbindin |
| 1.1 ± 0.6 | IAEKYP [Peptide 4] | – |
